Data on 4 molecules can be found in US20230212319A1, “NOVEL ANTIGEN BINDING DOMAINS AND SYNTHETIC ANTIGEN RECEPTORS INCORPORATING THE SAME” (University of Southern California, priority 2020, published 2023).

What all share (format): cell-based
One experiment deals with RAJI cells. The experiment is described as follows: JNG assay, co-culture with RAJI cells. The following applies: JNG cells expressing construct, co-culture with Raji. An outline of the steps: (§1)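 Jurkat NFAT-GFP (JNG) cells stably transduced with SARs by lentivirus, with drug selection where the construct carried a resistance gene, then co-cultured with target cells at E:T ~1:2 for ~4–18 h. % GFP-positive cells measured by FACS against parental JNG; +/- to 5+ correspond to ~5–50% GFP-positive.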

For a further experiment, the system named is L363 cells. The experiment in a line: JNG assay, co-culture with L363 cells. The following applies: co-culture with L363. An outline of the steps: as §1
Another experiment has as its system Nalm6 cells. The experiment is described as follows: JNG assay, co-culture with Nalm6 cells. The following applies: co-culture with Nalm6. In outline:
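SAR-JNG (lentiviral spinfection, drug-selected) + target cells, E:T ≈1:2, ≈4–18 h; FACS for GFP; positivity = %GFP+ over parental JNG; grades +/- to 5+ ≈ 5–50% GFP+.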

The subject of the next experiment is DAUDI. The experiment is described as follows: JNG assay, co-culture with DAUDI cells. How it is done:
Cellular supernatant is collected and assayed for the induction of cytokines (e.g., IL2).
JNG (Jurkat cells expressing EGFP under an NFAT promoter) were infected with lentiviral vectors encoding different single chain and multi-chain SARs by spinfection in the presence of 8 µg/ml of Polybrene® (Sigma, Catalog no. H9268). The Jurkat-NFAT-GFP cells are engineered in such a way that the IL-2 promoter, which carries NFAT binding sites, is cloned upstream of the GFP gene. These cells have been used to study signaling via TCR and CAR. The different SARs were stably expressed in Jurkat NFAT-GFP cells by lentiviral mediated gene transfer, followed by selection with puromycin or blasticidin. No drug selection was used in case the construct lacked an antibiotic resistance gene. The SAR-expressing Jurkat-NFAT-GFP cells were cocultured with the target cells at E:T ratio of approximately 1:2 for approximately 4 hours to 18 hours. When the interaction between SIRs and their target antigen results in activation of the NFAT pathway, GFP expression is induced. […] GFP expression was monitored by FACS analysis. The Jurkat-NFAT-GFP (parental) cells were used as control. The structure of different constructs can be determined based on their names. […] The sequence of the other constructs in the table can be similarly determined from their names and by referring to the different Tables of this disclosure that provide the names and SEQ ID NO of the different modules. Alternatively, the composition and modular architecture of the different SAR constructs can be determined from their sequences by bioinformatics tools, including using nucleic acid and amino acids homology searches. A SAR is considered positive in the assay in case the SAR expressing Jurkat-NFAT-GFP cells show greater % GFP positive cells when cultured with the target cell line as compared to parental Jurkat-NFAT-GFP cells. […] In general, the number +/-, +, 2+, 3+, 4+, 5+ refer to approximately 5%, 10%, 20%, 30%, 40% and 50% GFP positive cells. […]

A further experiment concerns LoVo. The experiment in a line: JNG NFAT-GFP assay, co-culture with LoVo cells.
For a further experiment, the system named is RAJI-CD19-KO cells. The experiment in a line: JNG assay, co-culture with RAJI-CD19-KO cells. The following applies: co-culture with Raji-CD19-KO. In outline:
as §1

The subject of a further experiment is RS;411. The experiment in a line: JNG assay, co-culture with RS;411 cells. The following applies: co-culture with RS411. An outline of the steps: as §1

B1: 22004 (protein)
chain: MALPVTALLLPLALLLHAARPLEGKPIPNPLLGLDSTGSGEDLKNVFPPEVAVFEPSKAEIAHTQKATLVCLATGFYPDHVELSWWVNGKEVHSGVCTDPQPLKEQPALNDSRYCLSSRLRVSATFWQNPRNHFRCQVQFYGLSENDEWTQDRAKPVTQIVSAEAWGRADCGITSASYHQGVLSATILYEILLGKATLYAVLVSALVLMAMVKRKDSRGRAKRSGSGATNFSLLKQAGDVEENPGPTSTMALPVTALLLPLALLLHAARPQLQLQESGPGLVKPSETLSLTCTVSGDSISSGDYYWGWIRQPPGKGLEWIGHIYYSGVTYYNPSLKSRVTISVDTSRNQFSLKLSSVTAADTAVYYCTREDSSNWRSRGQGTLVTVSSLESGGGGSFEQVQLVESGGGLVQPGGSLRLSCAASGFTFTNHAMSWVRQAPGKGLELVSSISGNGRTTYYADSVKGRFTISRDISKNTLDLQMNSLRAEDTAVYYCAKDGGETLVDSRGQGTLVTVSSTREQKLISEEDGSGIQNPDPAVYQLRDSKSSDKSVCLFTDFDSQTNVSQSKDSDVYITDKCVLDMRSMDFKSNSAVAWSNKSDFACANAFNNSIIPEDTFFPSSDVPCDVKLVEKSFETDTNLNFQNLSVIGFRILLLKVAGFNLLMTLRLWSSRAKRSGSGVKQTLNFDLLKLAGDVESNPGPSRGHMTEYKPTVRLATRDDVPRAVRTLAAAFADYPATRHTVDPDRHIERVTELQELFLTRVGLDIGKVWVADDGAAVAVWTTPESVEAGAVFAEIGPRMAELSGSRLAAQQQMEGLLAPHRPKEPAWFLATVGVSPDHQGKGLGSAVVLPGVEAAERAGVPAFLETSAPRNLPFYERLGFTVTADVEVPEGPRTWCMTRKPGA
On to B1, for which the “NFAT-GFP ASSAY: Raji” value with RAJI cells was “+ (refer to approximately 5%, 10%, 20%, 30%, 40% and 50% GFP positive cells)”. Moreover, the “NFAT-GFP ASSAY: L363” value with L363 cells is “+ (refer to approximately 5%, 10%, 20%, 30%, 40% and 50% GFP positive cells)”. The “NFAT-GFP ASSAY: Nalm6” value with Nalm6 cells was “+/- (refer to approximately 5%, 10%, 20%, 30%, 40% and 50% GFP positive cells)”. For the same molecule, the “NFAT-GFP ASSAY: Daudi” value with DAUDI was “+/- (refer to approximately 5%, 10%, 20%, 30%, 40% and 50% GFP positive cells)”.

B2: 22003 (protein)
chain: MALPVTALLLPLALLLHAARPLEGKPIPNPLLGLDSTGSGEDLKNVFPPEVAVFEPSKAEIAHTQKATLVCLATGFYPDHVELSWWVNGKEVHSGVCTDPQPLKEQPALNDSRYCLSSRLRVSATFWQNPRNHFRCQVQFYGLSENDEWTQDRAKPVTQIVSAEAWGRADCGITSASYHQGVLSATILYEILLGKATLYAVLVSALVLMAMVKRKDSRGRAKRSGSGATNFSLLKQAGDVEENPGPTSTMALPVTALLLPLALLLHAARPQLQLQESGPGLVKPSETLSLTCTVSGDSISSGDYYWGWIRQPPGKGLEWIGHIYYSGVTYYNPSLKSRVTISVDTSRNQFSLKLSSVTAADTAVYYCTREDSSNWRSRGQGTLVTVSSLESGGGGSFEEVQLLESGGGLVQPGGSLRLSCAASGFTFSSYAMSWVRQAPGKGLEWVSSISGSGDYIYYADSVKGRFTISRDISKNTLYLQMNSLRAEDTAVYYCAKEGTGANSSLADYRGQGTLVTVSSTREQKLISEEDGSGIQNPDPAVYQLRDSKSSDKSVCLFTDFDSQTNVSQSKDSDVYITDKCVLDMRSMDFKSNSAVAWSNKSDFACANAFNNSIIPEDTFFPSSDVPCDVKLVEKSFETDTNLNFQNLSVIGFRILLLKVAGFNLLMTLRLWSSRAKRSGSGVKQTLNFDLLKLAGDVESNPGPSRGHMTEYKPTVRLATRDDVPRAVRTLAAAFADYPATRHTVDPDRHIERVTELQELFLTRVGLDIGKVWVADDGAAVAVWTTPESVEAGAVFAEIGPRMAELSGSRLAAQQQMEGLLAPHRPKEPAWFLATVGVSPDHQGKGLGSAVVLPGVEAAERAGVPAFLETSAPRNLPFYERLGFTVTADVEVPEGPRTWCMTRKPGA
In the case of B2, the “NFAT-GFP ASSAY: Raji” value in the experiment with RAJI cells is “+ (refer to approximately 5%, 10%, 20%, 30%, 40% and 50% GFP positive cells)”. Besides, in the experiment with L363 cells, the “NFAT-GFP ASSAY: L363” value was “+ (refer to approximately 5%, 10%, 20%, 30%, 40% and 50% GFP positive cells)”. Besides, the “NFAT-GFP ASSAY: Nalm6” value with Nalm6 cells was “+/- (refer to approximately 5%, 10%, 20%, 30%, 40% and 50% GFP positive cells)”. For the same molecule, in the experiment on DAUDI, the “NFAT-GFP ASSAY: Daudi” value is “+/- (refer to approximately 5%, 10%, 20%, 30%, 40% and 50% GFP positive cells)”.

B3: 22005 (protein)
chain: MALPVTALLLPLALLLHAARPLEGKPIPNPLLGLDSTGSGEDLKNVFPPEVAVFEPSKAEIAHTQKATLVCLATGFYPDHVELSWWVNGKEVHSGVCTDPQPLKEQPALNDSRYCLSSRLRVSATFWQNPRNHFRCQVQFYGLSENDEWTQDRAKPVTQIVSAEAWGRADCGITSASYHQGVLSATILYEILLGKATLYAVLVSALVLMAMVKRKDSRGRAKRSGSGATNFSLLKQAGDVEENPGPTSTMALPVTALLLPLALLLHAARPEVQLVESGGGLVQPGGSLRLSCAASGFNIKDTCIGWVRRAPGKEEELVAKICKYSGHTRYADSVKGRFTISADTSKNTAYLQMNSLRAEDTAVYYCAAVSVRDGHYNYWGQGTTVTVSSTREQKLISEEDGSGIQNPDPAVYQLRDSKSSDKSVCLFTDFDSQTNVSQSKDSDVYITDKCVLDMRSMDFKSNSAVAWSNKSDFACANAFNNSIIPEDTFFPSSDVPCDVKLVEKSFETDTNLNFQNLSVIGFRILLLKVAGFNLLMTLRLWSSRAKRSGSGVKQTLNFDLLKLAGDVESNPGPSRGHMTEYKPTVRLATRDDVPRAVRTLAAAFADYPATRHTVDPDRHIERVTELQELFLTRVGLDIGKVWVADDGAAVAVWTTPESVEAGAVFAEIGPRMAELSGSRLAAQQQMEGLLAPHRPKEPAWFLATVGVSPDHQGKGLGSAVVLPGVEAAERAGVPAFLETSAPRNLPFYERLGFTVTADVEVPEGPRTWCMTRKPGA
As for B3, the “NFAT-GFP ASSAY: LoVo” value in the experiment with LoVo is “+/- (refer to approximately 5%, 10%, 20%, 30%, 40% and 50% GFP positive cells)”.

B4: 22118 (protein)
chain: MALPVTALLLPLALLLHAARPEVQLVESGGGLVQPGGSLRLSCTFSGGTFSSYTMGWFRQAPGKEREFVAEVRWGGVTTYSNSLKDRFSISEDSVKNAVYLQMNSLKPEDTAVYYCAAVRQMYMTVVPDYWGQGTLVTVSSSGGGGSDIQMTQSPSSLSASVGDRVTITCKASDHINNWLAWYQQKPGKAPKLLIYGATTLETGVPSRFSGSGSGTDFTLTISSLQPEDFATYYCQQSWNTPWTFGQGTKVEIKRLEDLKNVFPPEVAVFEPSEAEISHTQKATLVCLATGFYPDHVELSWWVNGKEVHSGVCTDPQPLKEQPALNDSRYCLSSRLRVSATFWQNPRNHFRCQVQFYGLSENDEWTQDRAKPVTQIVSAEAWGRADCGFTSESYQQGVLSATILYEILLGKATLYAVLVSALVLMAMVKRKDSRGRAKRSGSGATNFSLLKQAGDVEENPGPTSMDWIWRILFLVGAATGAHSFEVQLVESGGGLVQPGGSLRLSCAASGYAFSSYWVNWVRQAPGKGLEWVAQIYPGDGDTNYNGKFKGRFTISRDNSKNTLYLQMNSLRAEDTAVYYCARSITTVVGCAMDYWGQGTLVTVSSTRIQNPDPAVYQLRDSKSSDKSVCLFTDFDSQTNVSQSKDSDVYITDKCVLDMRSMDFKSNSAVAWSNKSDFACANAFNNSIIPEDTFFPSPESSCDVKLVEKSFETDTNLNFQNLSVIGFRILLLKVAGFNLLMTLRLWSSRAKRSGSGVKQTLNFDLLKLAGDVESNPGPSRGHMTEYKPTVRLATRDDVPRAVRTLAAAFADYPATRHTVDPDRHIERVTELQELFLTRVGLDIGKVWVADDGAAVAVWTTPESVEAGAVFAEIGPRMAELSGSRLAAQQQMEGLLAPHRPKEPAWFLATVGVSPDHQGKGLGSAVVLPGVEAAERAGVPAFLETSAPRNLPFYERLGFTVTADVEVPEGPRTWCMTRKPGA
Consider B4, for which the “NFAT-GFP ASSAY: Raji” value with RAJI cells was 3+ (refer to approximately 5%, 10%, 20%, 30%, 40% and 50% GFP positive cells). For the same molecule, the “NFAT-GFP ASSAY: Raji-CD19-KO” value with RAJI-CD19-KO cells was 2+ (refer to approximately 5%, 10%, 20%, 30%, 40% and 50% GFP positive cells). Besides, in the experiment on Nalm6 cells, the “NFAT-GFP ASSAY: Nalm6” value was 3+ (refer to approximately 5%, 10%, 20%, 30%, 40% and 50% GFP positive cells). Besides, in the experiment on RS;411, the “NFAT-GFP ASSAY: RS411” value is 3+ (refer to approximately 5%, 10%, 20%, 30%, 40% and 50% GFP positive cells). Also, the “NFAT-GFP ASSAY: Daudi” value with DAUDI was 3+ (refer to approximately 5%, 10%, 20%, 30%, 40% and 50% GFP positive cells).
